In patent publication US20240116985A1, “STAPLED PEPTIDES AND METHODS THEREOF” (priority 2020, published 2024):

Assays:
[1] = target: full-length beta-Catenin (Uniprot ID P35222) (Homo sapiens (Human)) (UniProt P35222); test: fluorescence polarization competition; full-length beta-catenin, 5FAM-TCF4(10-53) probe as competitor
Target sequence in this assay (P35222 2-781 limits assumed): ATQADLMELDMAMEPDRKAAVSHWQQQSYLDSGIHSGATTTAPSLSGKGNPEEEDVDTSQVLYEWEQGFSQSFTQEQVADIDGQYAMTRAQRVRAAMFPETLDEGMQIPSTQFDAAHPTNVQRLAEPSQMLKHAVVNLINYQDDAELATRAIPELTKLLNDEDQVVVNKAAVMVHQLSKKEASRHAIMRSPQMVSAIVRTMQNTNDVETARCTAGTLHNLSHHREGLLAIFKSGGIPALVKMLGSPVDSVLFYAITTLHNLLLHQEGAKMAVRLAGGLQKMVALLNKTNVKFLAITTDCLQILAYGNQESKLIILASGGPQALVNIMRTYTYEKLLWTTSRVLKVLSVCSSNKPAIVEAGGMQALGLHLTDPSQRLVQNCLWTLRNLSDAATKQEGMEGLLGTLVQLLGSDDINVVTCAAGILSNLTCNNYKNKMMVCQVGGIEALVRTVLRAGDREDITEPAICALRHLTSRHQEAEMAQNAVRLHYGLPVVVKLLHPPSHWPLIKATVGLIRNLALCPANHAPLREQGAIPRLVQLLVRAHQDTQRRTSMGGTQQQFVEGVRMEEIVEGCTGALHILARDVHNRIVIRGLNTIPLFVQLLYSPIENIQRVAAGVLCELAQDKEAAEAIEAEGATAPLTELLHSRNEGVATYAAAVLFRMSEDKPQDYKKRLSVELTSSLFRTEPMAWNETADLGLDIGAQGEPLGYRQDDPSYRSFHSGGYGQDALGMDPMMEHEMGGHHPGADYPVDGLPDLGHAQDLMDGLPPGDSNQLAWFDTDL

[2] = target: full-length beta-Catenin (Uniprot ID P35222) (Homo sapiens (Human)) (UniProt P35222); test: fluorescence polarization competition; full-length beta-catenin, 5FAM-TCF4(10-53) probe displaced
Target sequence in this assay (P35222 whole entry): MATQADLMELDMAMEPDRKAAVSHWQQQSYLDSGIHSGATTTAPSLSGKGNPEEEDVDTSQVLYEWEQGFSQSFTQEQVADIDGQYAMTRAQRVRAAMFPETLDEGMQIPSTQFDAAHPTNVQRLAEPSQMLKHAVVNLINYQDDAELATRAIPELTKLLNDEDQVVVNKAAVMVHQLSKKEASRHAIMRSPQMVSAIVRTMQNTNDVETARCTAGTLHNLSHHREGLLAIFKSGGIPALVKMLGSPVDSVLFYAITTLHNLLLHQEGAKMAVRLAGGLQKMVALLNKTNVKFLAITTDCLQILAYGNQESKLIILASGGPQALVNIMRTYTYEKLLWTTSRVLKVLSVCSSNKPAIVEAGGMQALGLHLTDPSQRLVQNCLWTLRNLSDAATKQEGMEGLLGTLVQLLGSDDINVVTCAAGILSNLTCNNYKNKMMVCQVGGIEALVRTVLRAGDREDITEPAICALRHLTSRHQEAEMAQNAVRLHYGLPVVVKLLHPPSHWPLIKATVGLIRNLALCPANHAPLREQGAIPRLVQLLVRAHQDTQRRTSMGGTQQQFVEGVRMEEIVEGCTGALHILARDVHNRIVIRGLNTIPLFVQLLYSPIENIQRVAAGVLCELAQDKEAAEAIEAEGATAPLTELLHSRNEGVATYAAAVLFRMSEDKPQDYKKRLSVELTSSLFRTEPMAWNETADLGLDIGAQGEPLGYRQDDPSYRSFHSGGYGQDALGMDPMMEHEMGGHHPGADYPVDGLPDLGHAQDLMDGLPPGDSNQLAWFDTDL

[3] = target: full-length beta-Catenin (Uniprot ID P35222) (Homo sapiens (Human)) (UniProt P35222); test: fluorescence polarization competition; displacement of 5FAM-TCF4(10-53) from full-length beta-catenin
Target sequence in this assay (P35222 whole entry): as above

| Substance | IC50 [1] [nM] | IC50 [2] [nM] | also measured |
| --- | --- | --- | --- |
| Ac-PL3-Asp-Npg-B5-Asp-Asp-Ala-Ala-Phe-Leu-PyrS2-3CNF-BztA-Gln-NH2 (peptide) | – | 81 | – |
| I-1519: Ac-PL3-Asp-Cha-B5-Asp-Asp-Ala-Ala-Phe-Leu-PyrS2-3Thi-BztA-Gln-NH2 (peptide) | – | – | IC50 [3]: 10 nM |
| Ac-PL3-Asp-Npg-B5-Asp-3COOHF-Ala-Ala-Phe-Leu-PyrS2-2F3MeF-2F3MeW-Gln-NH2 (peptide) | 6290 | – | – |
| MeSO2-PL3-Asp-Npg-B5-Asp-Asp-Ala-Ala-Phe-Asn-PyrS2-3Thi-BztA-Gln-NH2 (peptide) | – | 10 | – |
| Ac-PL3-Asp-Npg-B5-Asp-3COOHF-Ala-Ala-Phe-Leu-PyrS2-2F3MeF-SbMe2NapA-Gln-NH2 (peptide) | 79 | – | – |

Continued, in another order:

| IC50 [1] [nM] | IC50 [2] [nM] | Substance | also measured |
| --- | --- | --- | --- |
| 5 | – | Ac-PL3-Asp-Npg-B5-Asp-[CH2CCpCO2H]TriAzDap-Ala-Ala-Phe-Leu-PyrS2-3Thi-BztA-Gln-NH2 (peptide) | – |
| – | 987 | Ac-PL3-Asp-Npg-B5-Asp-Asp-Ala-Ala-Phe-Leu-PyrS2-4CNF-BztA-Gln-NH2 (peptide) | – |
| – | 16 | Ac-PL3-Asp-Npg-B5-Asp-Asp-Ala-Ala-Phe-Leu-PyrS2-2CNF-BztA-Gln-NH2 (peptide) | – |
| – | 7 | MeSO2-PL3-Asp-Npg-B5-Asp-TfeGA-Ala-Ala-Phe-Asn-PyrS2-3Thi-BztA-Gln-NH2 (peptide) | – |
| 5 | – | Ac-PL3-Asp-Npg-B5-Asp-[CH2CChCO2H]TriAzDap-Ala-Ala-Phe-Leu-PyrS2-3Thi-BztA-Gln-NH2 (peptide) | – |
